From US20130266605A1, “PEPTIDE INHIBITORS OF CD40L SIGNALING AND USES THEREFOR” (PHYLOGICA LIMITED, priority 2010, published 2013)
Entries after “also recorded” stand apart in the source; their conditions may differ. Read-outs that look alike come from different tables or passages of the source. Positions of bridges follow the written chain, without caps; N, C: chain ends. Residues, ends and D or L forms follow the SMILES beside them. Chains are numbered I, II in the order given. No end group written: not given here. PEG = not defined here

Legend:
[1] = test system: LPS-induced expression of CD86 mediated by the Toll-like receptors TLR 2/4; experiment: LPS-induced CD86 expression control assay; type: cell-based; settings: in words; specificity control; listed as M1—18S
Experimental: (§1) As a control in these assays, LPS-induced expression of CD86 mediated by the Toll-like receptors TLR 2/4, and TNFα-induced cytoxicity, were also assayed to exclude effects mediated by ligands other than CD40L.

TNFα-induced cytoxicity = experiment: TNFα-induced cytotoxicity control assay; type: cell-based; settings: in words, specificity control
Experimental: as §1

[2] = biological target: CD40L-induced CD86 expression on primary B-cells (UniProt P29965); experiment: Inhibition of CD40L-induced CD86 expression on primary B-cells (FACS); settings: in words
Experimental: In one example, the ability of a peptide, analog or derivative of the invention to inhibit or reduce or delay expression of CD86 on primary B-cells was determined in the presence and absence of the peptides, analogs and derivatives of the invention. In particular, CD86 expression was determined by FACS.

CD40L-CD40 interaction = biological target: T1, CD40L-CD40 interaction (Homo sapiens, UniProt P29965); experiment: Chemiluminescent proximity assay (Alphascreen); type: binding; settings: Alphascreen proximity assay; monomeric and dimeric peptides (Table 5); read-out: EC50
T1 sequence (P29965 113-261 limits assumed): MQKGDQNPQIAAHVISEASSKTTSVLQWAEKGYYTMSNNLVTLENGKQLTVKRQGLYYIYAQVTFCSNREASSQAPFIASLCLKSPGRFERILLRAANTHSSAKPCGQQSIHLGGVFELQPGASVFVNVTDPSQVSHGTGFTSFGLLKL
Experimental: In one example, the Alphascreen assay (PerkinElmer) was employed according to the manufacturer's instructions.
Homodimers and heterodimers were also assayed by chemiluminescent proximity assay for their ability to inhibit CD40L-CD40 interaction.

CD40 ligand [3] = biological target: T2, CD40 ligand (UniProt P29965 108-261, limits assumed); experiment: Octet Red label-free (BLI)
T2 construct: Used immobilised, soluble, or biotinylated on streptavidin beads; also called CD154; soluble CD40L
T2 sequence (looked up): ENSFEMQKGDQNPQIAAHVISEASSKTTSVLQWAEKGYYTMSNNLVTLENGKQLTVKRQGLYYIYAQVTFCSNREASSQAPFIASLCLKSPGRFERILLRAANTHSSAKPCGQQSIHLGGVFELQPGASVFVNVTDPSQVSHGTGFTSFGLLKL

CD40 ligand [4] = biological target: T2, CD40 ligand; experiment: Alphascreen, PEGylated peptide, inhibition of CD40L/CD40-Fc
CD40 ligand [5] = biological target: T2, CD40 ligand; experiment: cell-based or functional assay
CD40 ligand [6] = biological target: T2, CD40 ligand; experiment: Alphascreen proximity assay, peptide titrated; blocked interaction: CD40L with CD40
CD40 ligand [7] = biological target: T2, CD40 ligand; experiment: Alphascreen proximity assay, peptide titrated against 0.75nM CD40L; blocked interaction: CD40L with CD40
CD40 ligand [8] = biological target: T2, CD40 ligand; experiment: Alphascreen proximity assay, inhibition of CD40L-CD40
CD40 ligand [9] = biological target: T2, CD40 ligand; experiment: Alphascreen proximity assay (1hr), peptide titrated against 0.75nM CD40L; blocked interaction: CD40L with CD40; signal falls from about 27500 to about 5000 units
CD40 ligand, P29965 [10] = biological target: T3, CD40 ligand, P29965; experiment: Octet Red label-free (BLI)
T3 chain: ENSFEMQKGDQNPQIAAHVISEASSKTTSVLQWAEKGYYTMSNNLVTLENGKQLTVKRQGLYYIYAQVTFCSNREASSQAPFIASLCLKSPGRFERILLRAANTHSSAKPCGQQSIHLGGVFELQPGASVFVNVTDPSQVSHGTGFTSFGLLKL

CD40 ligand, P29965 [11] = biological target: T3, CD40 ligand, P29965; experiment: Alphascreen, unmodified peptide, inhibition of CD40L/CD40-Fc
CD40 ligand [12] = biological target: T2, CD40 ligand; experiment: Octet Red label-free (BLI); remark: listed apart in the source
CD40 ligand [13] = biological target: T2, CD40 ligand; experiment: Alphascreen, unmodified peptide, inhibition of CD40L/CD40-Fc
CD40 ligand [14] = biological target: T2, CD40 ligand; experiment: phage-displayed peptide on bound CD40L, soluble CD40L as competitor
CD40 ligand [15] = biological target: T2, CD40 ligand; experiment: Alphascreen proximity assay, peptide dimer titrated against 0.75nM CD40L; blocked interaction: CD40L with CD40; signal falls from about 23000 to about 4000 units
CD40 ligand [16] = biological target: T2, CD40 ligand; experiment: from the KD values of Table 2 (Octet Red)
CD40 ligand [17] = biological target: T2, CD40 ligand; experiment: Alphascreen proximity assay (1hr), peptide titrated against 0.75nM CD40L; blocked interaction: CD40L with CD40; signal falls from about 21000 to about 3000 units
CD40 ligand [18] = biological target: T2, CD40 ligand; experiment: cell-based or functional assay; remark: listed apart in the source
CD40 ligand [19] = biological target: T2, CD40 ligand; experiment: Alphascreen proximity assay, peptide dimer titrated against 0.75nM CD40L; blocked interaction: CD40L with CD40; signal falls from about 12500 to about 4000 units

CD40L-induced CD86 expression on primary B-cells, sequence (P29965 whole entry): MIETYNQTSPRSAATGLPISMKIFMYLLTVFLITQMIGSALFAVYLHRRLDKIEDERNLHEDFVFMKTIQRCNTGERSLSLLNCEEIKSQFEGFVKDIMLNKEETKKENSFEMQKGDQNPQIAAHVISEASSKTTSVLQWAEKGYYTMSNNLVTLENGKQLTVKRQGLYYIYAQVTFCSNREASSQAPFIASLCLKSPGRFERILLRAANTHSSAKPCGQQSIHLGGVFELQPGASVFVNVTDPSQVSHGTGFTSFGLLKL
CD40L-induced CD86 expression on primary B-cells, sequence (P25942 21-277 partner): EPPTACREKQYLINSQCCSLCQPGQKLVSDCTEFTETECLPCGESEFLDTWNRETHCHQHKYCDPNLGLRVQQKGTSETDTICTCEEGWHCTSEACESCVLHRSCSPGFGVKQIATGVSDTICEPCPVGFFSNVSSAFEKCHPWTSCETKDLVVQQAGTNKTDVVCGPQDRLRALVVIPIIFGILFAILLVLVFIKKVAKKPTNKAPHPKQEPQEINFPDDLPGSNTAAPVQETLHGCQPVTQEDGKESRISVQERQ

CC[C@H](C)[C@H](NC(=O)[C@H](CO)NC(=O)[C@H](Cc1c[nH]c2ccccc12)NC(=O)[C@H](CCC(N)=O)NC(=O)[C@@H](NC(=O)[C@@H]1CCCN1C(=O)[C@H](Cc1ccccc1)NC(=O)[C@H](Cc1ccccc1)NC(=O)[C@H](Cc1c[nH]c2ccccc12)NC(=O)CNC(=O)[C@H](Cc1ccc(O)cc1)NC(=O)[C@H](CCCCN)NC(=O)[C@H](CC(C)C)NC(=O)[C@@H](NC(=O)[C@H](Cc1c[nH]cn1)NC(=O)[C@H](CO)NC(=O)[C@H](CCCNC(=N)N)NC(=O)[C@H](Cc1ccc(O)cc1)NC(=O)[C@@H]1CCCN1C(=O)[C@@H](NC(=O)[C@H](Cc1ccccc1)NC(=O)[C@@H]1CCCN1C(=O)[C@@H](N)CC(C)C)C(C)C)C(C)C)C(C)C)C(=O)N[C@@H](Cc1ccccc1)C(=O)N[C@@H](C)C(=O)N[C@H](C(=O)N[C@@H](CC(C)C)C(=O)N1CCC[C@H]1C(=O)N[C@@H](Cc1ccccc1)C(=O)N[C@@H](CCC(N)=O)C(=O)N[C@@H](Cc1ccc(O)cc1)C(=O)N[C@@H](CC(C)C)C(=O)N[C@@H](Cc1c[nH]cn1)C(=O)N[C@@H](CCCNC(=N)N)C(=O)N[C@@H](CO)C(=O)N[C@@H](CCCNC(=N)N)C(=O)O)C(C)C [CD40L M1_18s] (H-LPFVPYRSHVLKYGWFFPVQWSIFAVLPFQYLHRSR-OH; N-terminus and C-terminus assumed)
inhibition of LPS-induced CD86 expression [1]: lack of concentration-dependent inhibition; also recorded: no significant inhibition
significant inhibition of TNFα-induced cell death / cytoxicity (TNFα-induced cytoxicity; listed as M1—18*S): lack of inhibition
significant inhibition of TNFα-induced cell death / cytoxicity (TNFα-induced cytoxicity; listed as M1—18S): none
inhibition of CD40L-induced CD86 expression on primary B-cells [2]: concentration-dependent inhibition

CC[C@H](C)[C@H](NC(=O)[C@H](CO)NC(=O)[C@H](Cc1ccccc1)NC(=O)[C@@H](NC(=O)[C@H](CC(N)=O)NC(=O)[C@H](CCCCN)NC(=O)[C@@H](NC(=O)[C@H](CO)NC(=O)[C@H](Cc1ccccc1)NC(=O)[C@@H]1CCCN1C(=O)[C@@H](N)Cc1c[nH]cn1)[C@@H](C)CC)C(C)C)C(=O)N[C@@H](Cc1c[nH]c2ccccc12)C(=O)N[C@@H](CC(N)=O)C(=O)N[C@@H](Cc1ccccc1)C(=O)N[C@@H](Cc1ccccc1)C(=O)N[C@@H](CO)C(=O)N[C@H](C(=O)N[C@@H](Cc1ccc(O)cc1)C(=O)O)C(C)C [CD40L M1_6s] (H-HPFSIKNVFSIWNFFSVY-OH; N-terminus and C-terminus assumed)
EC50 (CD40L-CD40 interaction): 0.122 to 0.323 nM
significant inhibition of TNFα-induced cell death / cytoxicity (TNFα-induced cytoxicity): lack of inhibition and none

DAAGREFFQIAGLFSFRHHWWQA [CD40L M1_30s]
Kd (CD40 ligand [3]): 400 nM

{PEG}-SIQYHWRYSRFKYYFQLIWVYYCHV (reading uncertain) [PEGylated CD40L M1_82]
EC50 (CD40 ligand [4]): 120 nM

HPFSIKNVFSIWNFFSVY (Cys-to-Ser derivative) [CD40L M1_6s]
EC50, inhibition of CD40L-induced CD86 expression on primary B-cells (CD40 ligand [5]): 323 nM
IC50 (read off the curve) (CD40 ligand [6]): ~300 nM
IC50 (read off the curve) (CD40 ligand [7]): ~300 nM

B1: M7_189S (peptide)
peptide: LLLFFFSPPFSIFSFSLTTLS
notes: Cys-to-Ser derivative; also called M1-189Sa
EC50, inhibition of CD40L-induced CD86 expression on primary B-cells (CD40 ligand [5]): 176 nM
EC50 (CD40 ligand [8]): 0.176 nM
EC50 (CD40 ligand [9]): 176 nM

RIESLEGEMWLINPFNGETLDEHTLEVWLK (modifications not checked) [CD40L M8_748]
Kd (CD40 ligand, P29965 [10]): 5 nM
EC50 (CD40 ligand, P29965 [11]): 184 nM

B2: CD40L M8_747 (peptide)
peptide: LAEHAVWSLKCFPDWEWYNINIFGTDDPNHFWVECDGHGKILFPGYPEGYYENHFLHSFELED
modifications: not checked
Kd (CD40 ligand, P29965 [10]): 8 nM
EC50 (CD40 ligand, P29965 [11]): 197 nM

CHPFSIKNVFSIWNFFSVY [Cys_M1_6S]
EC50, inhibition of CD40L-induced CD86 expression on primary B-cells (CD40 ligand [5]): 306 nM
EC50 (CD40 ligand [8]): 0.265 nM
IC50 (read off the curve) (CD40 ligand [6]): ~300 nM
IC50 (read off the curve) (CD40 ligand [7]): ~300 nM

HPFSIKNVFCIWNFFSVY (Base peptide) [CD40L M1_6]
Kd (CD40 ligand [12]): 24 nM
EC50 (CD40 ligand [13]): 440 nM
IC50 (CD40 ligand [14]): 16.3 nM

B3: Cys_M1_6S-Cys_M1_9S heterodimer (peptide)
peptide 1: CHPFSIKNVFSIWNFFSVY
peptide 2: CPPRYNLFFLFRFYSSFRRDYLYF
modifications: disulfide I:1-II:1
notes: also called 6-9 dimer
EC50, inhibition of CD40L-induced CD86 expression on primary B-cells (CD40 ligand [5]): 35 nM
EC50 (CD40 ligand [8]): 0.03 nM
EC50 (CD40 ligand [15]): 30 nM

{PEG}-PFTWRPTIFWIIQLIVYMRHF (reading uncertain) [PEGylated CD40L M7_206]
EC50 (CD40 ligand [4]): 88 nM

B4: CD40L D1_0014 (peptide)
peptide: PFTWRPTIFWIIQLIVYMRHFGGGGSRSELLRENICRYVSLFDHPLQRNTPLDELRFVIFDTETSGFDLVKDRILSIR
notes: Single-chain fusion of two peptide monomers; also called heterodimeric peptide of CD40L M1-206 and a second monomer with tetra-glycine spacer
fold higher affinity than the base monomeric peptide CD40L M1-206 (CD40 ligand [16]): 6 fold

B5: CD40L M1_9s (peptide)
peptide: PPRYNLFFLFRFYSSFRRDYLYF
notes: Cys-to-Ser derivative; also called M1-9Sa
EC50, inhibition of CD40L-induced CD86 expression on primary B-cells (CD40 ligand [5]): 564 nM
EC50 (CD40 ligand [8]): 0.564 nM
EC50 (CD40 ligand [17]): 564 nM

PPRYNLFFLFRFYCSFRRDYLYF (Base peptide) [CD40L M1_9]
Kd (CD40 ligand [12]): 8 nM
EC50 (CD40 ligand [13]): 370 nM
IC50 (CD40 ligand [14]): 81.1 nM

LPFVPYRSHVLKYGWFFPVQWSIFAVLPFQYLHRSR [CD40L M1_18s]
EC50, inhibition of CD40L-induced expression of CD86 on primary B-cells (FACS) (CD40 ligand [18]): ~743 nM
EC50, inhibition of CD40L-induced CD86 expression on primary B-cells (CD40 ligand [5]): 743 nM

LPFVPYRSHVLKYGWFFPVQWSIFAVLPFQYLHRCR (Base peptide) [CD40L M1_18]
IC50, inhibition of CD40L-induced expression of CD86 on primary B-cells (CD40 ligand [18]): < 500 nM
Kd (CD40 ligand [12]): 2.3 nM
EC50 (CD40 ligand [13]): 350 nM
IC50 (CD40 ligand [14]): 25 nM

B6: Cys_M1_6S homodimer (peptide)
peptide: CHPFSIKNVFSIWNFFSVY
modifications: also: homodimer: disulfide between the N-terminal cysteines of two chains
notes: also called 6-6 dimer; homodimer of the Phylomer peptide M1-6
EC50, inhibition of CD40L-induced CD86 expression on primary B-cells (CD40 ligand [5]): 48.9 nM
EC50 (CD40 ligand [8]): 0.0489 nM
EC50 (CD40 ligand [19]): 48.9 nM

PRWVRNRFYSLFVPSGVQRGGIHLWFSNWVR (Cys-to-Ser derivative) [CD40L M1_50s]
Kd (CD40 ligand [3]): 600 nM
